Data as given in patent US20260242478A1 (published 2026).
Where no end group is shown, it is not given here.

Tests used:
PSMA Fab (006 PSMA Fab) [1] = target: T1, PSMA Fab (006 PSMA Fab) (biotinylated (site not stated)); assay: phage ELISA, clonal phage on biotinylated PSMA Fab captured on neutravidin plate, anti-M13 HRP detection;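 further: crude clonal phage supernatants added to wells preincubated with PSMA antigen in blocking buffer or with blocking buffer only, giving a competition and a no-competitor control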
T1 construct: also called Anti-PSMA Fab

PSMA Fab (006 PSMA Fab) [2] = target: T1, PSMA Fab (006 PSMA Fab); assay: phage ELISA on captured PSMA Fab, wells pre-incubated with PSMA antigen as competitor
Experimental: (§1) Clonal phage were harvested as crude supernatants and screened via standard ELISAs. […] Prior to the addition of clonal phage. wells were incubated with blocking buffer and PSMA antigen or blocking buffer alone. Without washing or aspirating, clonal phage supernatants were then added to the wells and incubated for a short time. Wells were then washed followed by detection of bound phage using a horse radish conjugated anti-M13 antibody.

[3] = target: T2, Anti-PSMA Fab (SEQ ID NOs: 19, 20); assay: phage binding ELISA; plate-captured PSMA Fab pre-incubated with PSMA antigen as competitor, anti-M13 HRP detection
T2 construct: Biotinylated and captured on neutravidin coated plates in the phage ELISA; also called 006 PSMA Fab
Experimental: as §1

[4] = target: T2, Anti-PSMA Fab (SEQ ID NOs: 19, 20); assay: phage binding ELISA; clonal phage on plate-captured biotinylated PSMA Fab, anti-M13 HRP detection
Experimental: as §1

[5] = target: Anti-PSMA Fab (006 PSMA Fab); assay: clonal phage ELISA on biotinylated PSMA Fab captured on neutravidin; bound phage detected with anti-M13-HRP; no PSMA antigen
Experimental: as §1

[6] = target: Anti-PSMA Fab (006 PSMA Fab); assay: clonal phage ELISA on biotinylated PSMA Fab captured on neutravidin; PSMA antigen as competitor; anti-M13-HRP detection
Experimental: as §1

PSMA Fab [7] = target: T3, PSMA Fab; assay: clonal phage ELISA on biotinylated PSMA Fab captured on neutravidin, anti-M13 HRP detection;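 further: crude clonal phage supernatants added to wells pretreated with PSMA antigen in blocking buffer or with blocking buffer only, then briefly incubated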
T3 construct: also called Anti-PSMA Fab; 006 PSMA Fab
Experimental: as §1

PSMA Fab [8] = target: T3, PSMA Fab; assay: clonal phage ELISA on captured PSMA Fab pre-incubated with PSMA antigen (competitor: PSMA)
Experimental: as §1

Binder	Phage binding ELISA signal, Anti-PSMA Fab (PSMA Fab (006 PSMA Fab) [1])	phage binding ELISA signal (Anti-PSMA Fab pre-incubated with PSMA antigen) (PSMA Fab (006 PSMA Fab) [2])	Phage binding ELISA signal, Anti-PSMA Fab [5]	phage binding ELISA signal (Anti-PSMA Fab, wells pre-incubated with PSMA antigen) [6]	also measured
MVKLCIPEWMCDRQ [Phage-2337]	1.44	0.0609	–	–	–
PEKWCIPPWMCTNF (cysteine pairing not given here; also: displayed on bacteriophage by fusion to pIII) [Phage-2329]	1.45	0.065	–	–	–
VEKWCIPAWMCQQS (tested as crude clonal phage supernatant) [Phage-2291]	–	–	–	–	Anti-PSMA Fab signal in the presence of PSMA [3]: 0.0698; Anti-PSMA Fab (SEQ ID NOs: 19, 20) signal [4]: 1.5
EWKWCTPPWMCQYE [Phage-2308]	–	–	1.48	0.0874	–
WYKWCTPAWMCEIS [Phage-2338]	1.44	0.143	–	–	–
VEKWCIPPWMCVNS (tested as crude clonal phage supernatant) [Phage-2293]	–	–	–	–	Anti-PSMA Fab signal in the presence of PSMA [3]: 0.0666; Anti-PSMA Fab (SEQ ID NOs: 19, 20) signal [4]: 1.5
SDTWCIPAWMCEGR [Phage-2343]	1.43	0.0667	–	–	–
IHMLCSPPWMCVGL (tested as crude clonal phage supernatant) [Phage-2294]	–	–	–	–	Anti-PSMA Fab signal in the presence of PSMA [3]: 0.0564; Anti-PSMA Fab (SEQ ID NOs: 19, 20) signal [4]: 1.5
NVKWCTPPWMCFLD (tested as crude clonal phage supernatant) [Phage-2296]	–	–	–	–	Anti-PSMA Fab signal in the presence of PSMA [3]: 0.0656; Anti-PSMA Fab (SEQ ID NOs: 19, 20) signal [4]: 1.5
YDRLCIPMWMCSSV [Phage-2307]	–	–	1.48	0.0715	–
QNTWCIPPWMCEVF [Phage-2306]	–	–	1.48	0.0806	–
MDNWCTPPWMCHGF [Phage-2299]	–	–	1.49	0.0898	–
EVKWCTPSWMCSGL [Phage-2330]	1.45	0.06	–	–	–
PEKWCIPDWMCTVY [Phage-2311]	–	–	1.48	0.0815	–
VDKQCRPAWMCEIW (tested as crude clonal phage supernatant) [Phage-2290]	–	–	–	–	Anti-PSMA Fab signal in the presence of PSMA [3]: 0.0653; Anti-PSMA Fab (SEQ ID NOs: 19, 20) signal [4]: 1.5
LMNWCTPAWMCTGF (Peptide-180 library clone, tested as clonal phage supernatant (peptide fused to the pIII filament of the bacteriophage)) [Phage-2344]	–	–	–	–	Phage binding ELISA signal, Anti-PSMA Fab (PSMA Fab [7]): 1.43; Phage binding ELISA signal, Anti-PSMA Fab with PSMA antigen (PSMA Fab [8]): 0.0919
ELMWCIPPWMCEHS [Phage-2342]	1.43	0.0888	–	–	–
DVMWCIPPWMCEHR (tested as crude clonal phage supernatant) [Phage-2295]	–	–	–	–	Anti-PSMA Fab signal in the presence of PSMA [3]: 0.106; Anti-PSMA Fab (SEQ ID NOs: 19, 20) signal [4]: 1.5
WVQWCIPPWMCEPS [Phage-2300]	–	–	1.49	0.14	–
VVNWCVPEWMCSGF [Phage-2332]	1.45	0.0772	–	–	–
FANWCTPSWMCNFT [Phage-2302]	–	–	1.48	0.152	–

Binder	Phage binding ELISA signal, Anti-PSMA Fab (PSMA Fab (006 PSMA Fab) [1])	phage binding ELISA signal (Anti-PSMA Fab pre-incubated with PSMA antigen) (PSMA Fab (006 PSMA Fab) [2])	Phage binding ELISA signal, Anti-PSMA Fab [5]	phage binding ELISA signal (Anti-PSMA Fab, wells pre-incubated with PSMA antigen) [6]	also measured
IEKWCIPLWMCEMQ [Phage-2309]	–	–	1.48	0.0726	–
VQNWCIPAWMCEGK [Phage-2304]	–	–	1.48	0.0686	–
GEIWCTPSWMCWGL [Phage-2341]	1.43	0.0653	–	–	–
LTKWCIPEWMCAVE (cysteine pairing not given here; also: displayed on bacteriophage by fusion to pIII) [Phage-2303]	–	–	1.48	0.102	–
EPKWCTPAWMCSIV [Phage-2336]	1.44	0.0668	–	–	–
LVHMCKPAWMCTNL [Phage-2340]	1.44	0.0708	–	–	–
EFKMCIPQWMCQHQ [Phage-2312]	–	–	1.47	0.0622	–
ASNWCIPTWMCEGS [Phage-2335]	1.44	0.0671	–	–	–
EAKWCTPPWMCMSM [Phage-2305]	–	–	1.48	0.0593	–
EFIRCLPPWMCAGF (cysteine pairing not given here; also: displayed on bacteriophage by fusion to pIII) [Phage-2334]	1.44	0.0734	–	–	–
TVKWCIPSWMCQQS [Phage-2333]	1.44	0.102	–	–	–
FDMLCNPKWMCEGF (Peptide-180 library clone, tested as clonal phage supernatant (peptide fused to the pIII filament of the bacteriophage)) [Phage-2345]	–	–	–	–	Phage binding ELISA signal, Anti-PSMA Fab (PSMA Fab [7]): 1.43; Phage binding ELISA signal, Anti-PSMA Fab with PSMA antigen (PSMA Fab [8]): 0.0643
WDRLCIPPWMCDVM (Peptide-180 library clone, tested as clonal phage supernatant (peptide fused to the pIII filament of the bacteriophage)) [Phage-2346]	–	–	–	–	Phage binding ELISA signal, Anti-PSMA Fab (PSMA Fab [7]): 1.43; Phage binding ELISA signal, Anti-PSMA Fab with PSMA antigen (PSMA Fab [8]): 0.0803
WENWCTPEWMCNGF (cysteine pairing not given here; also: displayed on bacteriophage by fusion to pIII) [Phage-2298]	–	–	1.49	0.0767	–
SMKWCTPAWMCERL [Phage-2301]	–	–	1.49	0.115	–
FEHWCTPEWMCLGM [Phage-2331]	1.45	0.0623	–	–	–
NSNWCIPSWMCADI (cysteine pairing not given here; also: displayed on bacteriophage by fusion to pIII, tested as crude clonal phage supernatant) [Phage-2292]	–	–	–	–	Anti-PSMA Fab signal in the presence of PSMA [3]: 0.0741; Anti-PSMA Fab (SEQ ID NOs: 19, 20) signal [4]: 1.5
MEIWCKPAWMCEST [Phage-2310]	–	–	1.48	0.0714	–
EGISCVPNWMCVGF [Phage-2339]	1.44	0.119	–	–	–
THKWCIPVWMCEHQ (tested as crude clonal phage supernatant) [Phage-2297]	–	–	–	–	Anti-PSMA Fab signal in the presence of PSMA [3]: 0.0929; Anti-PSMA Fab (SEQ ID NOs: 19, 20) signal [4]: 1.5
